Experimental data reported in US6737058B2, “Methods for inhibiting endothelial cell and fibrinogen mediated inflammation using fibrinogen specific antibodies” (The Scripps Research Institute, priority 1992, dated 2004).
One block for each molecule: values may come before it. No end group written: not given here.

What was measured:
WT CHO cells = test: 125I-labeled γ3 binding to wild type CHO cells; design: species or system Chinese Hamster; conditions: 50 μg/ml
Method: (§1) Confluent monolayers of ICAM-1 CHO transfectants or wild type (WT) CHO cells were incubated in serum-free RPMI 1640 medium with increasing concentrations of ^125I-labeled γ3 peptide (10-150 μg/ml) in the presence of 1 mM CaCl2 and 1 mM MgCl2 for 45 min at 22° C. Cells were washed with three rapid changes of serum-free RPMI 1640, solubilized in 10% SDS, and radioactivity associated under the various conditions tested was quantitated in a beta-counter. Non specific binding was assessed in the presence of a 100-fold molar excess unlabeled γ3 peptide, or control peptide L10 added at the start of incubation, and was subtracted from the total as described above.

ICAM-1 = ICAM-1 (Homo sapiens, UniProt P05362); test: 125I-labeled γ3 binding to ICAM-1 CHO transfectants
Method: A variant polypeptide γ3 (KYG-γ3) duplicating the fibrinogen γ chain sequence 117-133 N^117NQKIVNLKEKVAQLEA^133 (SEQ ID NO 2) was synthesized with the addition of Lys-Tyr-Gly residues at the amino terminus to facilitate radiolabeling of the polypeptide (KYGN^117NQKIVNLKEKVAQLEA^133, SEQ ID NO 4). The variant γ3 and L10 polypeptides were synthesized as described in Example 7A. Typically, 2 mg of KYG-γ3 were iodinated with 5 mCi ^125I-Na (Amersham, Arlington Heights, Ill.) by the IODO-GEN method (Fraker et al., Biochem Biophys Res Commun., 80:849-857, (1978)) for 45 min at 4° C. Free radioactivity was separated from polypeptide-bound radioactivity by gel-filtration over a Bio-Gel P-2 column (Bio-Rad, Richmond, Va.) which had been preequilibrated with PBS, pH 7.2, containing 0.01% BSA, with a flow rate of 0.2 ml/sec.
as §1, with “Non specific binding was assessed in the presence of a 100-fold molar excess unlabeled γ3 peptide, or control peptide L10 added at the start of incubation, and was subtracted from the total as described above.” left out

ICAM-1+ JY lymphocytes = test: Adhesion of 51Cr-labeled JY lymphocytes to peptide-coated wells; format: cell-based; conditions: wells coated with 1-100 μg/ml peptide, 45 min at 37° C.
Method: Ninety-six well assay plates (Costar, Cambridge, Mass.) were coated with increasing concentrations (1-100 μg/ml) of the polypeptides γ3 and L10 in PBS, pH 7.2, for 18 h at 4° C. Wells were washed in PBS, pH 7.2 and blocked with 3% gelatin for 60 min at 37° C.
Serum-free suspensions of JY lymphocytes were labeled with 0.5 mCi ^51Cr (Na2CrO4, specific activity 487.4 mCi/mg, E. I., DuPont de Nemours, Wilmington, Del.) for 2 h at 37° C., with a final incorporation of 0.2-4 cpm/cell (Languino, et al., supra). Aliquots of ^51Cr-labeled JY lymphocytes at 1×10^6/ml were added to peptide-coated wells for 45 min at 37° C., washed, solubilized in 20% SDS, and radioactivity associated under the various conditions was determined in a scintillation beta-counter. The number of attached cells was quantitated by dividing the cpm harvested by the cpm/cell. Data are the mean ± S.D. of two independent experiments.

[1] = target: T1, ICAM-1 receptor on JY lymphocytes (Homo sapiens, UniProt P05362); test: Inhibition of JY lymphocyte adhesion to γ3-coated plates by monoclonal antibodies; format: cell-based; conditions: plates coated with 20 μ/ml peptide, no antibody
T1 construct: endogenous in cells; host or cells: JY lymphocytes (51Cr-labelled)
Method: Binding inhibition assays were performed using radiolabeled ICAM-1^+ JY lymphocytes and the γ3 polypeptide. […] The peptides used in this assay were the γ3 and irrelevant polypeptide L10 prepared as described in Example 7A.
Ninety-six well assay plates were coated with 20 μ/ml of the polypeptides γ3 and L10 and the ^51Cr-labeled JY lymphocytes were prepared as described above. The ^51Cr-labeled JY lymphocytes were preincubated with saturating concentrations (25 μg/ml) of monoclonal antibodies anti-ICAM-1 1G12, 2D5, or 6E6; or anti-EPR-1 6A11 before incubation in the […] plates. Binding of radiolabelled JY lymphocytes was measured after a 45 min maintenance period in the presence of the monoclonal antibodies in the γ3 peptide-coated plate. Background binding was assessed by the incubation of ^51Cr-labeled JY lymphocytes which had not been preincubated with a monoclonal antibody in the L10 peptide-coated plate. Data are the mean ± S.D. of replicates of two independent experiments.

HUVEC [2] = test: Adhesion of terminally-differentiated 51Cr-labeled HL-60 cells to resting HUVEC with plasma adhesive proteins; format: cell-based, human; conditions: for adhesion of differentiated HL-60 cells to HUVEC relative to cells not equilibrated with an adhesive protein: 150 μ/ml protein, fMLP 10 μM, 30 min at 22° C.
Method: The effect of fibrinogen, vitronectin, and fibronectin on the interaction of terminally-differentiated HL-60 and monocytic THP-1 cells with HUVEC was determined as described in Languino, supra. Briefly, serum-free suspensions of HL-60 or THP-1 cells were labeled with ^51Cr as described in Example 81A to a final incorporation of 0.2-4 cpm/cell. After washes in PBS, pH 7.2, aliquots of the HL-60 cells were resuspended in serum-free RPMI 1640 at 1.5×10^6/ml and stimulated with 10 μM of the chemoattractant formyl-methionyl-leucyl-phenylalanine (fMLP, Sigma, St. Louis, Mo.) and equilibrated with 150 μ/ml fibrinogen, vitronectin, or fibronectin in the presence of 1 mM CaCl2 for 20 min at 22° C. Equilibrated HL-60 were added to resting HUVEC monolayers that had been previously incubated with fresh complete culture medium 12 hours prior to the experiment and incubated for an additional 30 min at 22° C., washed,solubilized in 10-20% SDS, and associated radioactivity determined in a scintillation β-counter. The number of attached cells was quantitated by diving the cpm harvested by the cpm/cell. Under these experimental conditions, there was no aggregation of the various leukocyte subpopulations in the presence of the different plasma adhesive proteins, nor disruption of the HUVEC monolayers at any time interval tested, as judged by routine microscopic examination of the adhesion field. Data are the mean ± S.D. of triplicates from a representative experiment.
Experimental conditions were the same as described in Example 9C1 except that the ^51Cr-labeled HL-60 cells were equilibrated with 40 μg/ml vitronectin or control protein transferrin and added to resting HUVEC for increasing time intervals between 10 and 60 minutes at 22° C. before measurement of leukocyte adhesion.
Experimental conditions were the same as described in Example 9C1 except that the ^51Cr-labeled HL-60 cells were equilibrated with several concentrations of vitronectin ranging from 1.84 to 150 μg/ml and prior to incubation to resting HUVEC.

HUVEC [3] = test: Inhibition of 125I-labelled fibrinogen binding to HUVEC by cold fibrinogen, anti-VNR antibodies and RGD/RGE peptides; design: species or system human; conditions: anti-VNR antibody 25 μg/ml, 20 minutes at 37° C. preincubation
Method: Binding of ^125I-labelled fibrinogen binding to HUVEC assays were performed in the presence of 50 molar excess of unlabelled fibrinogen in order to confirm the specificity of binding as shown in Example 3A. The binding assay was performed as described in Example 3A with the exception that unlabelled fibrinogen was admixed to HUVEC at a 50 molar excess (approximately […] fibrinogen) concurrently with 50 μg/ml of ^125I-labelled fibrinogen. The protein-cell admixtures were maintained at 22° C. for 30 minutes to allow for binding of fibrinogen to HUVEC. In addition to cold fibrinogen, a 50 fold molar excess of BSA was separately admixed as a control. The amount of fibrinogen bound under the above conditions was quantitated as described in Example 3A. The uninhibited total binding of ^125I-labelled fibrinogen saturated after 30 minutes at approximately 4000 cpm per well. […] The binding of fibrinogen to the HUVEC surface fibrinogen receptor is therefore specific.
The specificity of binding to an RGD-independent fibrinogen receptor was confirmed in competition assays performed as described above in the presence of monoclonal antibodies against the beta subunit of the RGD-dependent VNR and in the presence of RGD-containing peptides. For the assays in which the ability of anti-VNR monoclonal antibodies, designated mAb 609 and mAb 7E3, to inhibit the binding of ^125I-labelled fibrinogen to HUVEC, the antibodies were separately maintained at a concentration of 25 μg/ml with HUVEC for 20 minutes at 37° C. After the maintenance period, the antibody-treated HUVEC were washed once with serum-free RPMI 1640 to remove any unbound antibody. Labelled fibrinogen was then admixed to the treated HUVEC at a concentration of 50 μg/ml in the presence of 2.5 mM CaCl2 and […] PPack. The resultant admixtures were maintained for 10-30 minutes at 22° C. The fibrinogen-treated HUVEC were then washed, solubilized and counted as described in Example 3A.
To confirm that the fibrinogen binding site on HUVEC was not RGD dependent, inhibition assays performed as described above for inhibiting with antibodies except that they were done in the presence of 1.0 mM of an RGD-containing peptide. A control RGE-containing peptide was also included in the assay. At selected time points over the time course of one hour, the HUVEC were harvested as described in Example 3A.

HUVEC [4] = test: Iodinated D30 binding to HUVEC monolayers and its competition; design: species or system human; conditions: 50 fold molar excess of cold fibrinogen; myoglobin as nonspecific protein
Method: Binding assays described above in Example 3A2) were also performed with the fibrinogen homolog, D30, to determine if that region of fibrinogen also immunoreacted with HUVEC. Since D30 was known to bind to leukocytes via the Mac-1 receptor as described by Altieri et al., J. Biol. Chem., 265:12119-12122 (1990), these experiments were performed to determine if regions of fibrinogen mediating the binding of leukocytes to HUVEC are contained within the D30 fragment. For this analysis, the D30 fragment of fibrinogen prepared in Example 1B was labelled with ^125I as described for labelling of fibrinogen above. Iodinated D30 was admixed to HUVEC monolayers at a concentration of 10 μg/ml to form a binding complex. After washing the cells to remove the unbound D30 as described in Example 3A2) above, the cells were solubilized and the amount of bound radioactivity was determined. The binding of D30 to HUVEC was maximal at 120 minutes of the maintenance period with approximately 60,000 cpm.

ICAM-1, sequence (P05362 28-532): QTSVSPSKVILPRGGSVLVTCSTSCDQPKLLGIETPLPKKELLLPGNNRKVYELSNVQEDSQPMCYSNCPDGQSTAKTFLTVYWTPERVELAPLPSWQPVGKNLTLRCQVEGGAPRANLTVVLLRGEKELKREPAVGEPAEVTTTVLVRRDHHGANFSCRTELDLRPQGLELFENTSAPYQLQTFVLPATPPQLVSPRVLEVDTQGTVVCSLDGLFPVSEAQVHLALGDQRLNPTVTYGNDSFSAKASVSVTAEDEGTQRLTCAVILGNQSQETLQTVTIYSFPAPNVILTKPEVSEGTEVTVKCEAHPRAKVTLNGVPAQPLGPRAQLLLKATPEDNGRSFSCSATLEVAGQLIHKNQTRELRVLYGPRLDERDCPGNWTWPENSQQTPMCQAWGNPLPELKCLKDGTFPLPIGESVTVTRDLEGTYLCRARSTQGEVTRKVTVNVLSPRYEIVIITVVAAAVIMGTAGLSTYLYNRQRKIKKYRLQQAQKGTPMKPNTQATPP
T1 sequence (P05362 28-532): as above

Molecule: KYGN^117NQKIVNLKEKVAQLEA^133 (KYGNNQKIVNLKEKVAQLEA; also: 125I radiolabel) [KYG-γ3]
binding of 125I-labeled γ3 polypeptide to WT CHO cells (WT CHO cells): did not bind
binding of 125I-labeled γ3 polypeptide to ICAM-1 CHO transfectants (ICAM-1; 10-150 μg/ml, 1 mM CaCl2 and 1 mM MgCl2, 45 min at 22° C.): bound to ICAM-1 CHO transfectants in a specific and dose-dependent fashion

Molecule: LGGAKQAGDV (OTHER INFORMATION: synthesized) [L10, reference compound]
adhesion of JY lymphocytes to immobilized peptide (ICAM-1+ JY lymphocytes): did not support lymphocyte adhesion at any concentration tested
JY lymphocyte adhesion to L10-coated plate (background) [1]: did not support significant JY lymphocyte adhesion

competition of 125I-labeled γ3 polypeptide binding (ICAM-1; 100-fold molar excess unlabeled peptide): competitively inhibited
Molecule: NNQKIVNLKEKVAQLEA (OTHER INFORMATION: synthesized) [γ3]
adhesion of JY lymphocytes to immobilized peptide (ICAM-1+ JY lymphocytes): strongly adhered

Molecule: fibronectin
adhesion of differentiated HL-60 cells to HUVEC relative to cells not equilibrated with an adhesive protein (HUVEC [2]): did not result in an increase in adhesion

B1: vitronectin: human vitronectin purchased from GIBCO or donated (protein, UniProt P04004 20-478, looked up)
Vitronectin: DQESCKGRCTEGFNVDKKCQCDELCSYYQSCCTDYTAECKPQVTRGDVFTMPEDEYTVYDDGEEKNNATVHEQVGGPSLTSDLQAQSKGNPEQTPVLKPEEEAPAPEVGASKPEGIDSRPETLHPGRPQPPAEEELCSGKPFDAFTDLKNGSLFAFRGQYCYELDEKAVRPGYPKLIRDVWGIEGPIDAAFTRINCQGKTYLFKGSQYWRFEDGVLDPDYPRNISDGFDGIPDNVDAALALPAHSYSGRERVYFFKGKQYWEYQFQHQPSQEECEGSSLSAVFEHFAMMQRDSWEDIFELLFWGRTSAGTRQPQFISRDWHGVPGQVDAAMAGRIYISGMAPRPSLAKKQRFRHRNRKGYRSQRGHSRGRNQNSRRPSRATWLSLFSSEESNLGANNYDDYRMDWLVPATCEPIQSVFFFSGDKYYRVNLRTRRVDTVDPPYPRSIAQYWLGCPAPGHL
time and dose dependency of vitronectin-mediated increase in HL-60 adhesion (HUVEC [2]; 10 to 60 minutes, 1.84 to 150 μg/ml): time-and dose-dependent manner
adhesion of differentiated HL-60 cells to HUVEC relative to cells not equilibrated with an adhesive protein (HUVEC [2]): three to four-fold
vitronectin concentration at which increase in HL-60 adhesion was saturated (HUVEC [2]; vitronectin 1.84 to 150 μg/ml): 50 µg/mL

inhibition of 125I-labelled fibrinogen binding to HUVEC (FIG. 7) (HUVEC [3]): no inhibitory effect
B2: mAb 609: anti-VNR monoclonal antibody (antibody, V domains shown)
VH: EVQLEESGGGLVKPGGSLKLSCAASGFAFSSYDMSWVRQIPEKRLEWVAKVSSGGGSTYYLDTVQGRFTISRDNAKNTLYLQMSSLNSEDTAMYYCARHNYGSFAYWGQGTLVTVSA
VL: ELVMTQTPATLSVTPGDSVSLSCRASQSISNHLHWYQQKSHESPRLLIKYASQSISGIPSRFSGSGSGTDFTLSINSVETEDFGMYFCQQSNSWPHTFGGGTKLEIKRA

competition of D30 binding to HUVEC (HUVEC [4]): did not inhibit
B3: Myoglobin: a nonspecific protein (protein, UniProt P68082 2-154, looked up)
Myoglobin: GLSDGEWQQVLNVWGKVEADIAGHGQEVLIRLFTGHPETLEKFDKFKHLKTEAEMKASEDLKKHGTVVLTALGGILKKKGHHEAELKPLAQSHATKHKIPIKYLEFISDAIIHVLHSKHPGDFGADAQGAMTKALELFRNDIAAKYKELGFQG
